Our source for the Kd values is article PMC9287321 (Scientific Reports, 2022).

This experiment has as its target T1, AFP_(158–166) peptide complexed with HLA-A*02:01 (Homo sapiens, HLA-A*02:01).
T1 construct: HLA-A*02:01 heavy chain, soluble recombinant; β2-microglobulin, recombinant; alpha-fetoprotein (AFP) peptide, residues 158–166; also called AFP/HLA-A*02; AFP/HLA-A*02 complex; copies: + +
Kind of experiment: SPR; Biacore T200, CM5 chip; AFP/HLA-A*02 amine coupled (100–200 RU); kinetic titration, five injections of increasing TCRm, 100 μL/min, 25 °C; 1:1 binding model; mean of three experiments. The following applies: both partners purified. In general terms: In SPR one partner is held on a chip, and binding of the other changes the refractive index at the surface.

B1: anti-AFP TCRm antibody, Fab fragment (Fab, V domains shown)
VH: EVQLVQSGAEVKKPGESLTISCKASGYSFPNYWITWVRQMSGGGLEWMGRIDPGDSYTTYNPSFQGHVTISIDKSTNTAYLHWNSLKASDTAMYYCARYYVSLVDIWGQGTLVTVSS
VL: QSVLTQPASVSGSPGQSITISCTGTSSDVGGYNYVSWYQQHPGKAPKLMIYDVNNRPSEVSNRFSGSKSGNTASLTISGLQAEDEADYYCSSYTTGSRAVFGGGTKLTVL
notes: Fab cut by papain from human IgG1; also called TCR mimic antibody; TCRm Fab fragment
A word on the Kd: it is the free concentration of one partner at which half of the binding sites on the other are occupied at equilibrium, for simple one-to-one binding. Read a high Kd as weaker binding. The molecule B1 displayed a Kd of 7 nM.
